Data taken from a protein production outcome set (Wang et al. 2014).

Assay: label from the status in PepcDB records

Sequence	protein production
MKSHQLLKAPFQHGFLFSRPLVMYCFKTCHDSAWKHYIRFLKYRHEKLYEEALSEIDNAIKVCNSIAFRYFLLSEKLTVLGYMGKHEEGIKLYSHLRGRMRNVSPNLRSIFIGNLLNYCSMYLHNAFECLGRIKPEAHHLEKSSYAFILIGKARYMARTGNVKEAIESYEKALKILQEIPHPSGIIACLNDMAWYTKEKDPEKAKDMAEEALYWNGYFFDAPRFYALDTLFEVQRTTSDPAIVETARLIEIASEGLKDSASDLLKKDQRLFLRLNNSLYRNTKSLQRFLRRNTTSIKHLSEITGVARNRLSDILNGKTQKIRGETLRKIAKAFEKSNILSFPPPLLSEWVKLRIEENFSAALREIKTKRLEERQILFLSTYTALIDRKFLSRKERLKKAYTLLEDIESFADFMAKDHRTMEFVVSMVKAHPFVEGRKEAVKRALARMKRKRLERFVLRYIEMKESDRKLLDRFLRNYGRYDGVRFGIRLKGPEVVREFAKKYSLKVQPLFAAFWCEEDGRVRRRLERVLKHMVLN	failed
MYSPFEILYLAIIIDSLSYTIGALLYGSPIPVRGFKEMGHKMIVNSIYVAVLANIFGLILSILSQLQNIVGANWSTFYLDIGLLQIQTGVAINMGKFLYGIIALILYYFKVPSQFYSLVTPLLQYISFLTDILILLNFYMDLGIFIQSSYMVLIAIGILLMALPFQMGKGIGAMLISFTIVFYVGLPLLPILISNSSPLQNQNFVLQDISLQTEEFYAQIPALFYSFILIPLTYVGVLVGFSVVLQSFIGGYVGRLPIPVEI	failed
MRLISKPVLCNYYVTYRCNATCGFCDIWEKPSPYVTPEAVEQNMRDLKKLGVKVIDFTGGEPLLHREMDTLLRIAKKYGMITTLTTNALLYPKWAERLKGLIDMLHFSLDSPDKAEHDTLRGVACFDFVLESIEKAKALG	failed
MLFYLYVTRCKQLLNYNNMETDNGDKEKSEEDDLCALKDALEAVILFQGLSEYQKKLMFPNLKNLGAETIKELIDEWKELNVEELNLNIKKQTFFTKFANASWSLMLLIQQENNFCFWMFYVIPTSLFFVCCVLLHLLNDGS	failed
MESESSGLSFPLGLYDAIIAHARSVFPEECCGLVAAPAGGAPIRVIPMENALHSPVRYEMNPKEQFQVQKNLRREGLEMWAIYHSHPVTRPYPSETDIRLAFYPELYYLLTSLAEDPPPLKAYTIQNGVVREIPLKVSPGES	failed
PSLPGIEAAARYLPATQGMEIGGDFYDLVATVGRAAAVIGDVQGHNVTAAGLMGQIRTAVRAYTTVGQAPGQVMRSTNRLMIDLGTDLFASCVYLRLDPARQRVVMARAGHPPPLLRKPDGQVRVLDLAGGPLLGIDADATYTTTEFALAPGSVLALYTDGLIESPGIDIEDALAELGERLAESGDEPLDELADRLVRHTATAEERLDDIALLLLRARA	failed
MLIFLISSAIVLLADLLITYQIYREIKVRREVSGNQGGFASVIIPVRGLDVNAEENLKSLLSQDYSAYEVIYVVDDENDPIVPILRKYNVKVVVSNKNCDICSGKINAQLEGLKHARGDIIVFADSDTWFPKYWLKELVSPLSNYVATTVFSWAKPVRLTIGNIIRAGFWTLGFESQAVGGTFLWGGSMAFKREFFDERVIQELKTQWCDDCTLTRIAKERGKLGFVFNAMPLNFYDETQLITWSKRQLITVWRYSRRGVNGFIIVAIFMLAFLFLIPFNVFAITPFIFWVFKNILRSYKIGLSNSIIPSLASILAIFYSLFLIALTLREKNIIWRGKIYKV	failed
MNLHQTVEHEAAAAFAAAGIAGSPVVLQPTKNAEHGDFQINGVMGAAKKAKQNPRELAQKVADALAGNAVIESAEVAGPGFINLRLRHEFLAQNIHAALNDARF	not failed
MSVALPRSPDVDGSLSEAPNRIDVVTFGCRLNTYESEVMRREAESAGLGALQGGAVIFNTCAVTGEAVRQARQAIRKARRDNPGARIIVTGCAAQTEPEKFAAMDEVDLVLGNEEKLKANSYRALPDFGVNDTEKARVNDIFSVRETAGHMVDAIEGRARAFVQVQNGCDHRCTFCIIPYGRGNSRSVPMGAVVEQVKRLAGNGYAEIVLTGVDMTSFGADLPGAPKLGRLVKTILKQVPDVKRLRLSSIDSIEADDDLLDAIATEPRLMPHLHLSLQSGDDMILKRMKRRHLRDQSIRFCEDVRKLRPEIVFGADIIAGFPTETDAMFENSIKIVEECGLTHLHVFPFSPREGTPAARMPQVRREVVKQRAARLRAAGEAAYRRHLSSLPGTRQSILIERDGLGRTEGFTLAALGTGAPGEIVEATITGHDGARLNAVPLAARAA	failed
MRQTKLTKAARGRECQVRIPGVCNGNPETTVLAHYRLAGTCGVGKKPHDMQGAWCCSACHDACDGRSRAVGRETARQYHAEGVMRTQALLLNEGVLVE	not failed
MIKNDGKMMRVRIAKERSDLCDLTAAAIKATYNTRNPCEVERCIDVLNHLKSLSLSVKDIRLSESIVKLETLRSHRNPRIRKEAQALFHSWLKTFYAHGSDNSFTAALTKDRLKMKKHVLKMCSELKKKEEPGTMARQVTAFSVLKNKEDERSQTTVEAVESKTTIKLSELNRKEDQRSLTRETEKNKARNSFLALKQKEDHRSETCVEKYFKKETKTNLKQLNMKTRRVSLEDVTTKKPHEDGSLIKKTKTEKELKKKKVDEMVKLFEAAKKAADVANAKGVLSGKPEVSRCIDALSLLMKINITPKPKEPRRMMDKLEGLTKHKDRKICHVASALLHLWRQRIREQERKKSVTKASSKTRKLSYVKIIWLEQIKVSCGFKRF	failed
MLTLLSPCTLPVIPLLFASVRGRRGQLAIMLAGMALMFGAVSWLVTVASGWVVNLTLAGRGLALAFFALVGLSLLSQRVAQRLTSPLVALGNQLNDASSRQRGWIGSLLAGLAVGLLWAPCAGPVLGAILSLGFVHPGQATTGGLLLAYGSGGALMLFLLGWCGAALIARLRRGQAFGERLRRLAGGAMLASVALIASGGDRYLQSAGGLSQALEQRLAARLPQPEQKTSLQPIAAPQPSSAMPSLAGGSAWINSPALTPERLKGKVVLVDFWTRECINCQHTLPYVRDWANKYRAAGLVVIGVHTPEYPWERSLPLLRQAVKDWRITYPVVADNEYAIWNAFGNQYWPAHYIFDARGQLRYTAFGEGDYARQEQVIQQLLQESKA	failed
PMNGKEKAASYDKVVDVDVKLGQVSVKNPKGTAHEMPKTFTFDAVYDWNAKQFELYDETFRPLVDSVLQGFNGTIFAYGQTGTGKTYTMEGIRGDPEKRGVIPNSFDHIFTHISRSQNQQYLVRASYLEIYQEEIRDLLSKDQTKRLELKERPDTGVYVKDLSSFVTKSVKEIEHVMNVGNQNRSVGATNMNEHSSRSHAIFVITIECSEVGLDGENHIRVGKLNLVDLAGSERQAKTGAQGERLKEATKINLSLSALGNVISALVDGKSTHIPYRDSKLTRLLQDSLGGNAKTVMVANVGPASYNVEETLTTLRYANRAKNIKNKPRVNEDPKDAL	failed
MTEHRPAIELEEIPTLLERIEGYKGRSRLTQLAIKLNLLIFIRSSELRFARWSEIDFKSGLWVIPEQREAIKGIKHSDRGAKMRRKHYVPLCEQALVILGELKDLTYDVNGDDGFILTGCYDAMKPMSENTINKALRKMGYDTKTDLCGHGFRTLACSALIESGIWPEDVVELQMSHMEKNNVRAAYTHKAKHLEQRRLMLQWWADFLDANGSGMVRPFEFAQGATQYLEHHHHHH	failed
MACGATLKRPMEFEAALLSPGSPKRRRCAPLPGPTPGLRPPDAEPPPLQMQTPPASLQQPAPPGSERRLPTPEQIFQNIKQEYNRYQRWRHLEVVLSQSEACTSETQPSSSALTAPGSPGAFWMKKDQPTFTLRQVGIICERLLKDYEDKVREEYEQILSTKLAEQYESFVKFTHDQIMRRYGTRPTSYVS	failed
MGHHHHHHSHMGRCYNNIVIDASIEAVWQQIGNFHDMSWAKGVITSLVKVGPASGTEVGAKRILNDAIHETLVSLDSSNYTFTYSIDDGPDAIAKSAVDNYLGMVNLSESSTGVLVEWSSSFTSDNEKAVTEFCDP	failed
MALSGGDDQVPPGGPMTVSTRLIDAGSTIMQRRLPVKQMNTHVSTFAIYGGDMSRLIGTHHYVHRVNDEFLQCAVYASDRSDAPLIGIEYVISDRLYETLSEDEQKLWHSHAYEVKSGSWAYPRLPEVVAAPELKNIAKTYGKFWCTWQIDRGDKLPMGAPELMMSPQGVGQGVLRPELVKRRDEKYNISTDDLKHTRAEIAEPEWINPMADYWKQHGKCFVLDIATVEMNRHAQFP	failed
LGVVPEVRDWFTLGDHRFLVMDFLEGRPLNSFFAERHPLLTPDPEPDAVAAYTAWALRIHRAVEQAVHAVHARGIVFNDLHVFNIMVAPDEESVSLLDFEAAAPIEEN	failed
MSNGGLSIDEKEGLIDKDEVMIRRMKNRERQRRYRARKRMREEEAGNDDNLSFETMGKQEEEEEEDEGLEFNGPSGYVENFVRRVYCDRNWKKEARRAHLIMNKAQDSSCESVKRKIRPHRRDWKAEARKKKT	failed
MAVVASAPGKVLMTGGYLVLEKPNAGLVLSTNARFYAIVKPINEEVKPESWAWKWTDVKLTSPQLSRESMYKLSLNHLTLQSVSASDSRNPFVEHAIQYAIAAAHLATEKDKESLHKLLLQGLDITILGSNDFYSYRNQIESAGLPLTPESLGTLAPFASITFNAAESNGANSKPEVAKTGLGSSAAMTTAVVAALLHYLGVVDLSDPCKEGKFGCSDLDVIHMIAQTSHCLAQGKVGSGFDVSCAVYGSQRYVRFSPEVLSFAQVAVTGLPLNEVIGTILKGKWDNKRTEFSLPPLMNLFLGEPGSGGSSTPSMVGAVKKWQMSDPEKARENWQNLSDANLELETKLNDLSKLAKDHWDVYLRVIKSCSVLTSEKWVLHATEPINEAIIKELLEAREAMLRIRILMRQMGEAASVPIEPESQTQLLDSTMSAEGVLLAGVPGAGGFDAIFAITLGDSGTKLTQAWSSHNVLALLVREDPHGVCLESGDPRTTCITSGVSSIHLE	failed
MTMSTTREIAFLIARILLGVILIAHGWDKFAITGLEGVTGFFDSLGIPAAGIAAIAAAVVELLGGILIILGVFTRIVAAFVAIDMLFAALFAHVSSGIFVTNNGWELTGAIGAGALLLIAVGAGAWSIDGVLAKRKA	failed
MQLEHILRSYARYAPVYDHTFGWLLNFRGRSLAAHLTNRRPGRILEVGVGTGISLPFYRKEHQVHGIDISPHMLERARRRVHSKNLDHVVRLEIMDAREMAFPDDYFDAVVAAYVMSVVPEPQRVLREIERVCKAGGDVIIVNHFAADKKGTRRHFEALLSPLSHKLGWRPDMPIDEILAHTSLHEVRRQTLPPMGLFTLLHLKKASPDFADPARP	failed
NQQTPTFYVHGFQGSAKSTNTLIAHAEKTAHAHKVLVATVSTSGQVTLTGKWRGRVRNPIIQVVFKNNLAQYDQQSAWLAKVITTVQQQHAFKHYNIVAHSAGCVASVNMLMTQQTTTFPKINKLVTIAGPFDGVVGEDDVANQNSFLTSGQPKYLHAAYELLAAKRNNFPKNVQLLNIVGTLNDGSHSDSLVTNVSARSIKYLLRGRDVDYTEKDFYGAHAQHSQLHENAKVALAVDRFLWHR	failed
PGLRELCIQKAPGERLGISIRGGARGHAGNPRDPTDEGIFISKVSPTGAAGRDGRLRVGLRLLEVNQQSLLGLTHGEAVQLLRSVGDTLTVLVCDGFE	not failed
MQKFIRDFTLPAAFAGFVTFLIGISVSSVLVIQAAQILGANTPQITSWFWALGIGIGLSGLILSWKFKYPVATSWSTAGLALIIATGSGYSLHEAIGAFLLCGLLTALLGFFGVFQKALAYIPQSLTSAMLAGVLLKFGIAIFGNMQDHWQFIISLLAVYIVSKRLWPRYCIVITVIAGVMICPFFMEFHLPTLHWELAKPEWITPHFTGSAILGLALPLFVINMASQYLPGIAMIKSYGYNPNVNQLIGWTGATQTLLAPFGCYTVNIAAISAAVSLDDQVHPDPAKRYIAGISCGFFYILMGLFAATLTSLLMSFPSLFIVALAGIALFGTISHNIAIAFQEPTDREAALLTFLCSASGIQFFGIGSAFWGLIVGVIVSMVLKTKFKKS	failed
